B1: Leu-Gln-Pro-Pro (LQPP) (peptide)
peptide: LQPP
B2: Ala-Pro-Tyr (APY) (peptide)
peptide: APY
B3: Leu-Ser-Leu-Pro (LSLP) (peptide)
peptide: LSLP

In the assay the target is Angiotensin converting enzyme (ACE EC 3.4.15.1). Kind of assay: cell-based or functional assay.
As for B1, the “IC50 of ACE inhibitory activity” value was 14.2 mg/L.
To B2 belongs 19.1 mg/L; to B3, 71.1 mg/L.

Source of the values: patent US11524977 (JIANGSU UNIVERSITY, dated 2022).
